# Measurements: the nanobody polyreactivity screen of Harvey et al. (2022)
# Assay: yeast display, Sf9 membrane polyspecificity reagent, FACS + sequencing; frameworks hold sequencing errors
# Outline: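 Polyreactivity labels are assigned by the sorting gate from which each nanobody was recovered. The gates were low and high (top ~1%), set on anti-HA fluorescence for expression and streptavidin fluorescence for reagent binding. Before sorting, galactose-induced (36–48 hours) yeast display cells were stained for 1 hour at 4 °C with 10% biotinylated, detergent-solubilized Sf9 membrane reagent.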
sequence,measurement,value
QVQLVESGGGLVQAGGSLRLSCAASGSIFAWYGMGWYRPAPGKERELVAAISTAGSTNYADSVKGRFTISRDNAKNTVYLQMNSLKPEDTAVYYCAKKSSWYYPERFDYWGQGTQVTVSS,polyreactivity (PSR sort gate),low polyreactivity
QVQLVESGRGLVQAGGSLRISCAPSGITFGRYVMGWYRQAPGKERELVAVISRGGSTNYADSVKGRFTIARDNAKNTDYLQMNSLKPEDSAVYYCAADEWIVHDGYYSSYYYWGQGTQVTVSS,polyreactivity (PSR sort gate),low polyreactivity
QVQLVESGGGLVQAGGSLRLSCAASGSTFDYYARGWYRQAPGKERELVAGISSSGGRTYYADSVKGRFTISRDNAKNTVYLQMNSLKPEDTAVYYCAARIRVRKHEAFDYWGQGTQVTVSS,polyreactivity (PSR sort gate),low polyreactivity
QVQLVESGGGFVQAGGSLRLSCAASGSTFSVYAMGWYRQAPGKERELVATIRRGGSTYADSVKGRFTISRDNAKNTVYLQMNSLKPEDTAVYDCAADAYVSSQPMDYWGQGTQVTVSS,polyreactivity (PSR sort gate),high polyreactivity
QVQLVESGGGLVQAGGSLRLSCAASGSTFNGYTMGWYRQAPGKERELVAAISKSGGRTYYADSVKGRFTISRDNAKNTVYLQMNSLKPEDTAVYYCAAHFRALGIYYTYDYWGQGTQVTVSS,polyreactivity (PSR sort gate),high polyreactivity
QVQLQERGGGLVQAGGSLRLTCAASGTISDSGLMGWYRQAPGKERELVAGISSGGITNYADSVKGRFTISRDNANNTVYLQMNSLKPEDNAVFWGQGSQVTVSS,polyreactivity (PSR sort gate),low polyreactivity
QVQLVESGGGLVQAGGTLRLSCAASGYIFPAYVMGWYRQAPGKERELVAAITSGGGTYYADSVKGRFTISRDNAKYTVYLQMNSLKPEDTAVYYCAARYTQRPRRNYWGQGTQVTVSS,polyreactivity (PSR sort gate),high polyreactivity
QVQLVESGGGLVQAGGSLRLSCAASGFTFFVYGMGWYRQAPGKERELVATINWSGASTYYADSVKGRFTISRDNAKNTVYLQMNSLKPEDTAVYSCAKDGHYPLVYLAFDYWGQGTQVTVSS,polyreactivity (PSR sort gate),low polyreactivity
QVQLVESGGGLVHAGGSLRLSCAASGRIFSPYARGWYRQAPGKERELDAAMSGSRGRTYYADSVKGRFTISRDNAKNTEYLLMNRLKPEDTADYYCAAYRAITRANYLDYWGQGTQVTVSS,polyreactivity (PSR sort gate),high polyreactivity
QVQLVESGGGLVQAGGSLRLSCAASGSIYDIYAMGWYGQAPGKERELVAAIRSGDRTHYADSVKGRFTISRDNAKNTVYLQMNSLKPEDTAVYYCAADRYIYLNREHDYWGQGTQVTVSS,polyreactivity (PSR sort gate),low polyreactivity
QVQLVESGGGLVQAGGSLRLSCAASGFIFWPYAMGWYRQAPGKERELVAAITRSGGSTYYADSVKGRFTISRDNAKNTVYLQMNSLKPEDTAVYYCAARKRGTFTYDYWGQGTQVTVSS,polyreactivity (PSR sort gate),high polyreactivity
QVQLGESGGGLVQAGGSLRLSCAASGLTLYLYTMGWYREAPGKEMELVASIDSGTSTKYADSVKGRFTISRDNAKNTVYLQMNSLKPEDTAVYYCAAGVWVTRYFRYYYWGQGTLVTVSS,polyreactivity (PSR sort gate),low polyreactivity
QVQLVESGGGLVQAGGSLRLSCAASGSIFRPYAMGWYRQAPGKERELVATITWRGGSTTYADSVKGRFTISRDNAKNTVYLQMNSLKPEDTAVYYCAADASWELFAWAHYDYWGQGTQVTVSS,polyreactivity (PSR sort gate),low polyreactivity
QVQLVESGGGLVQAGGSLRLSWAASGLIFVYNDMGWYRQAPGKEMELVAAIRWSSGRTYYADSVKGRFTISRDNAKNTVYLQMNSLKPEDTAVYYCAAKGVGPERGGYDYWGQGTQVTVSS,polyreactivity (PSR sort gate),high polyreactivity
QVQLVESGGGLVQAGGSLRLSCAASGYIFRLNAMGWYRQAAGKERELLAGISTGGRTNYADSVKGRFTISRDNAKNTVNLQMNSLTPEDTAVYYCAAAWHTASWVGSDSLGGGYWGQGTQVTVSS,polyreactivity (PSR sort gate),low polyreactivity
QVQLVESGGGLVQAGGSLRLICAASGNTLIVNAMGWYRQAPGKERELVAAITRDGRTNYADSVKGRFTISRDNAKNTVYLQMNSLKPEDTAVYYCAARLAQSTGYGYWGQGTQVTVSS,polyreactivity (PSR sort gate),low polyreactivity
QVQLVESGGGLVQAGGSLRLSCAASGRIFPHNAMGWYRQAPGNERELVAAISSHGGSTYYAVSVKGRFTISRDNAKNTVYLQMNSLKPEDTAVYYCAKYRYFAGDGDYWGQGTQVTVSS,polyreactivity (PSR sort gate),low polyreactivity
QVQLVESGGGLVQAGGSLRLSSAASGSTFRGNAMGWYRQAPGKERELVAAISAIGGSTYYADSVKGRFTISRDNAKNTVYLQMNSLKPEDTAVYYCAARYLYLLGGFNYWGQGTQVTVSS,polyreactivity (PSR sort gate),high polyreactivity
QVQLVESGGGLVQAGGSLRLSCAASGSIFFWYTMGWYRQAPGKERELVATITGSGSSTTYADSVKGRFTISRDNAKNTVYLQMNSLKPEDTAVYYCAAADIIDHSFPYDYWGQGTQVTVSS,polyreactivity (PSR sort gate),low polyreactivity
QVQLVESGGGLVQAGGSLRLSCAASGFIFSSYAMGWYIQAPGKERELVAAISRSGGRTYYADSVKGRFTISRDNAKNTVYLKMNSLKPEDTAVYYCAAKWLGTAGDDYWGQGTQVTVSS,polyreactivity (PSR sort gate),high polyreactivity
QVQLVESGGGLVQAGGSLRLSCAASGSIFYLYAMGWYRQAPGKERELVARITWSGGRTFYADSVKGRFTISRDNAKNTVYLQMNSLKPEDTAVYYCNARYHGKYDYWGQGTQVTVSS,polyreactivity (PSR sort gate),high polyreactivity
QVHLVESGGGLVQAGGSLRLSCAASGRTFVRYAMGWYRQAPGKERELVAAISLRGGRTYYADSVKGRFTISRDNAKNTVYLQMNSLKPEDTAVYYCAARSYPTGASYDYWGQGTQVTVSS,polyreactivity (PSR sort gate),high polyreactivity
QVQLVESGGGLVQAGGSLRLSCAASGSIFTGNAMGWYRQAPGKERELVAAISSTGTTNYADSVKGRFTISRDNAKNTVYLQMNSLKPEDTAVYYCARRWYSTWWYGYWGQGTQVTVSS,polyreactivity (PSR sort gate),high polyreactivity
QVQLVESGGGLVKAGGSHRLSLASYGTFRYYAMGWYRQAPGKERELDAGISRSGGSTYYEDSVKGRFTISRDNAKNTVYLQMNSQNPEDTEVYDCAAGNYYYWYKTKYYHYDYWGQGTQVTVSS,polyreactivity (PSR sort gate),high polyreactivity
QVQLVESGGGLVQAGGSLRLSCAASGSTFDGYAMGWYRQAPGKERELVAAISSSGTSTYYADSVKGRFTISRDNAKNTVYLQMNSLKPEDTAVYYCAGKGATQSWAGDYWGQGTQVTVSS,polyreactivity (PSR sort gate),low polyreactivity
QVQLVESGGGLVQAGGSLRLTCAASGSTFRKNVMGWYRQAPGKERELVARISNSGGSTNYADSVKGRFTISRDNAKITVYLQINSLKPADTAVYNCNARKYTNHATYDYWGQGTQVTVSS,polyreactivity (PSR sort gate),high polyreactivity
QVQLVESGGGLVQAGGSLRLSCDASGSIIRYYAMGWYRQAPGKERELVAAINSLGGTTYYADSVKGRFTISRDNAKNTVYLQMNSLKPEDTAVYYCAAGYPPLHTSVQQTAHYGLDYCGQGTQVTVSS,polyreactivity (PSR sort gate),high polyreactivity
QVQLVESGGGLVQAGGSLRFSCAASGRTFVWYTMGWYRQAPGKERELVAAISSGGSTSYADSVKGRFTISRDNAKNTVYLQMNSLKPEDTAVYYCNAVWYVRYSGMDYWGQGTQVTVSS,polyreactivity (PSR sort gate),high polyreactivity
QVQLVESGGGLVQAGGILRLSCAPSGSTFTFYAMGLYRQAPGKERELVAAINSSGGRTYYADSVKGRFTISRDNAKNTVYLQMNSLKPEDTAVYYCAARRPLVRYIMGYWGQGTQVTVSS,polyreactivity (PSR sort gate),high polyreactivity
QVQLVESVGGLVQAGGSLRLSCAASGNTFYVNVMGWYRQAPGKEREFVAAITWIGGSTYYADSVKGRFTISRDNAKNTVYLQMNSLKPEDTAVYYCAADVYNRWWWRAYDYWGQGTQVTVSS,polyreactivity (PSR sort gate),high polyreactivity
QVQLIESGGGLVQAGGSLRLSCAASGSIFYNNTMGWYRQAPGKERELVATIRTSGGSTYADSVKGRYTISRDNAKNTLYLQMNSLKPEDTAVYYCAVRRYRSSSYYYWGQGTQVTVSS,polyreactivity (PSR sort gate),high polyreactivity
QVQLVESRGCLVQAGGSLRLSCAASGRIFYYYDMGWYRQAPGKERELVAAITYSDSSTYADSVKRRFTISRDNAKNTVYLQMNSLKPEDTAVYYCAADYVYPGVRLEMDYWGQGTQVTVSS,polyreactivity (PSR sort gate),low polyreactivity
QVQLVESGGGLVQAGGSLRLSCAASGRIFIVNAMGWYRQATGKERELVAAISYRGGSTYYADSVKGRFTISRDNAKNTVYLQMNRLKPEDTAVYYCAADRYSYLGYPYEYEYWGQGTQVTVSS,polyreactivity (PSR sort gate),low polyreactivity
QVQLVESGGGLVQAGGSLRLSCAASGLIFYRYTMGWYRQAPGKERELVAAISRRGGSTFYADSVKGRFTISRDNAKNTVYLQMNSLKPEDTAVYYCAAASWYRRKIYYSWGQGTQVTVSS,polyreactivity (PSR sort gate),high polyreactivity
QAQLVESGGGLVQAGGSLRLSSAASGFIFWGNAMGWYRQAPGKERELVAGIRSLGGTTSYADSVKGRFTISRDNAKNTVYLQMNSLKPEDTAVYYCAAGYGAEFDYWGQGTQVTVSS,polyreactivity (PSR sort gate),low polyreactivity
QVQLVESGGGLVQAGGSLRLSCAASGRIFSYNDMGWYRQAPGKERELVAAISWNSGRTYYADSVKGRFTISRDNAKNTVYLQMNSLKPEDTAVYYCNAPYWKSRFRAYYHWGQGTQVTVSS,polyreactivity (PSR sort gate),high polyreactivity
QVQLVESGGGLLQAGGSLRLSSAASGVYAMGWYRQAPGKERELVAAISRRGGSTYYADSVKGRFTISRDNAKNTVYLQMKSLNPADTAVYYCAADYTSRTRGNRDRLDYWGQGTQVTVSS,polyreactivity (PSR sort gate),high polyreactivity
QVQLVESGGGLVQAGGSLRLSCAASGRIFNSYAMGWYRQAPGKERELVAAISWSGSSTYYADSVKGRFTISRDNAKNTVYLQMNSLKPEDTAVYYCAAGTRYFDYWGQGTQVTVSS,polyreactivity (PSR sort gate),high polyreactivity
QVQLVESGGGLVQAGGSLRLSCAASGFTFSKYTMGWYRQAPGKERELVAAITSGGSTNYADSVKGRFTISRDNAKNTVYLQMNSLKPEDTAVYYCNKRHIAHNAVGAGLELDYWGQGTQVTVSS,polyreactivity (PSR sort gate),low polyreactivity
QVQLVESGGGLVQAGGSLRLSCAASGRTFKYYAMGWYRQAPGKERELVAAISRSGGTTYYADSVKGRFTISRDNAKNTVYLQMNSLKPEDTAVYYCAARCATRSRYDYWGQGTQVTVSS,polyreactivity (PSR sort gate),high polyreactivity
QVQHVESGGGLVQAGGSLRLSCAASGYIFKGNVMGWYRQAPGKERELVAAISRSGGRTYYADSVKGRFTISRDNAKNTVYLQLNSLKPDDTAVFYCFTKHRTKPTRPVDYWGQGTQVTVSS,polyreactivity (PSR sort gate),high polyreactivity
HVQLQESGGGLVQAGGSLRLSCAASGSIFQATYMGWYRQAPGKEREFVASITYGSITNYADSVKGRFTIGRDNAKDTLYLQMNSLKPEDTAVYYCAVDRHYIPDFHYWGQGTQVTVSS,polyreactivity (PSR sort gate),low polyreactivity
QVQRVESGGGLVQAGGSLRLSCAASGNTFYGYTMGWYRQAPGKERELVAAISGRGGSTTYADSVKGRFTISRDNEKNTVYCQMNSLKPEDTAVYDCAANSVYIRTRFYYWGQGTQETVSS,polyreactivity (PSR sort gate),high polyreactivity
